{
  "source": "patent US12447213B2",
  "about": "“Modulation of novel immune checkpoint targets” (The Brigham and Women's Hospital, Inc., priority 2016, dated 2025)",
  "key": {"[1]": {"conditions": "vaccination alone or combined with a low dose of estramustine; cited from earlier work"}, "Th17 cells": {"system": "Th17 cells", "assay": "Binding of recombinant His-tagged CD166 to Th17 cells (FACS)", "set-up": "species or system mice", "conditions": "exogenous, 10 ug/ml; HBSS", "experimental": "FIG. 50. Exogenous CD166 binds weakly to Th17 cells (in HBSS). In vitro differentiated pathogenic and non-pathogenic Th17 cells were incubated with recombinant His-tagged CD166 (10 ug/ml) in indicated buffer at room temperature for 30 min, washed twice, and then incubated with anti-His antibody for 10 min. Stained cells were analyzed by FACS.\n(§1) To investigate the role of CD166, CD4+CD44^loCD62L^hi naïve CD4 T cells were sorted by FACS and cultured in vitro with plate-bound anti-CD3 (2 ug/ml) and anti-CD28 (2 ug/ml) plus the following polarizing cytokines: IL12 (20 ng/ml) for Th1 cells; IL4 (20 ng/ml) for Th2 cells; TGFb (5 ng/ml) for iTreg cells; IL27 (25 ng/ml) for Tr1 cells; TGFb (2 ng/ml) and IL6 (25 ng/ml) for non-pathogenic Th17; TGFb (2 ng/ml), IL6 (25 ng/ml) and IL23 (20 ng/ml), or, […] (25 ng/ml) and IL23 (20 ng/ml) for pathogenic Th17. Expression of CD166 was measured by FACS on day 3. […] (FIG. 48). To determine the effect of plate-bound CD166, naïve T cells from spleen of WT or Gp49b KO mouse were differentiated into pathogenic in vitro with anti-CD3/CD28 Dynabeads in the presence of plate bound recombinant CD166 (10 ug/ml) or BSA (10 ug/ml) as control. Cytokine production from Th17 cells were measured by FACS on day 4. […] Next, the role of exogenous CD166 was assayed. […] Stained cells were analyzed by FACS."}, "pathogenic Th17 cells": {"system": "pathogenic Th17 cells", "assay": "Pathogenic Th17 differentiation in the presence of plate bound recombinant CD166, cytokine production by FACS", "format": "cell-based, mouse", "conditions": "10 ug/ml, Gp49 dependent, WT or Gp49b KO", "experimental": "FIG. 49. Plate-bound CD166 inhibits GM-CSF and enhances IL10 production from pathogenic Th17 cells in a Gp49 dependent way. Naïve T cells from spleen of WT or Gp49b KO mouse were differentiated into pathogenic in vitro with anti-CD3/CD28 Dynabeads in the presence of plate bound recombinant CD166 (10 ug/ml) or BSA (10 ug/ml) as control. Cytokine production from Th17 cells were measured by FACS on day 4.\nas §1"}},
  "data": [
    {"molecule": "C[C@]12CC[C@@H]3c4ccc(OC(=O)N(CCCl)CCCl)cc4CC[C@H]3[C@@H]1CC[C@@H]2O", "note": "[estramustine]", "values": [
      {"measurement": "patients with a ≥50% decrease in serum prostate specific antigen (PSA)", "setting": "[1]", "value": 54, "unit": "%"}
    ]},
    {"molecule": "CD166: recombinant CD166; transmembrane glycoprotein (type I) encoded by the ALCAM gene, novel ligand of ILT-3 (protein, UniProt Q13740 28-583, looked up) CD166 antigen: WYTVNSAYGDTIIIPCRLDVPQNLMFGKWKYEKPDGSPVFIAFRSSTKKSVQYDDVPEYKDRLNLSENYTLSISNARISDEKRFVCMLVTEDNVFEAPTIVKVFKQPSKPEIVSKALFLETEQLKKLGDCISEDSYPDGNITWYRNGKVLHPLEGAVVIIFKKEMDPVTQLYTMTSTLEYKTTKADIQMPFTCSVTYYGPSGQKTIHSEQAVFDIYYPTEQVTIQVLPPKNAIKEGDNITLKCLGNGNPPPEEFLFYLPGQPEGIRSSNTYTLTDVRRNATGDYKCSLIDKKSMIASTAITVHYLDLSLNPSGEVTRQIGDALPVSCTISASRNATVVWMKDNIRLRSSPSFSSLHYQDAGNYVCETALQEVEGLKKRESLTLIVEGKPQIKMTKKTDPSGLSKTIICHVEGFPKPAIQWTITGSGSVINQTEESPYINGRYYSKIIISPEENVTLTCTAENQLERTVNSLNVSAISIPEHDEADEISDENREKVNDQAKLIVGIVVGLLLAALVAGVVYWLYMKKSKTASKHVNKDLGNMEENKKLEENNHKTEA", "values": [
      {"measurement": "binding to Th17 cells", "setting": "Th17 cells", "value": "binds weakly"},
      {"measurement": "GM-CSF production from pathogenic Th17 cells", "setting": "pathogenic Th17 cells", "value": "inhibits"},
      {"measurement": "IL10 production from pathogenic Th17 cells", "setting": "pathogenic Th17 cells", "value": "enhances"}
    ]}
  ]
}
